Here are results for four molecules from patent publication US20040138422A1 (published 2004).

*: point of attachment. Biotin = O=C1N[C@H]2[C@H](CS[C@H]2CCCCC(=O)*)N1

The target of assay [1] is CCR4 on CCR4-transfected B300.19 mouse lymphoma cells (human) (UniProt P51679). Nature of the assay: FACS, CCR4-transfected B300.19 cells, biotinylated chemokine then FITC-avidin. In general terms: A flow cytometer gives signals particle by particle.
For assay [2] the target is unchanged. Nature of the assay: cell-based or functional assay.
Assay [3] has as its target T1, FITC-conjugated avidin (BD Biosciences) (UniProt P02701 25-152, FITC conjugate).
T1 construct: Detection reagent; also called FITC-avidin; FITC-labeled avidin
In words: FACS; avidin binds the biotin of the receptor-bound chemokine. From the text:
After 2 repetitive washings using staining buffer, cells were fixed in PBS with 1% FCS 1% and 1% PFA before FACS analysis.

Chain of CCR4 on CCR4-transfected B300.19 mouse lymphoma cells (human) (P51679 whole entry): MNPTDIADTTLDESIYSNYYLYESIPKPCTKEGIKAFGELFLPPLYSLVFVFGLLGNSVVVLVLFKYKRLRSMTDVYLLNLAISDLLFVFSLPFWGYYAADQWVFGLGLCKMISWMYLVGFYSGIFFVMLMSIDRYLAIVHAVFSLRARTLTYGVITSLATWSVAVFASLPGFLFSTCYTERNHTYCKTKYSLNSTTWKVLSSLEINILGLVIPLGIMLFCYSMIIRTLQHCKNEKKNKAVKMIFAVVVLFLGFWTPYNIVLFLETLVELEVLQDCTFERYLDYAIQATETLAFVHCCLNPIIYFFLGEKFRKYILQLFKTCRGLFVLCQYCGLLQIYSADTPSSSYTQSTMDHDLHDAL
T1 sequence (P02701 25-152 limits assumed): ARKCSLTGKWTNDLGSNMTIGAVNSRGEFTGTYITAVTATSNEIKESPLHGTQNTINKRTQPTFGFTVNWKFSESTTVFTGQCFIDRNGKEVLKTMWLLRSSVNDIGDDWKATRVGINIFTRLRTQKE

In assay [1], “biotinylated CCL22(G1) analogue (from UniProt O00626 25-93) (ligand)” yielded an MFI of 5.9. In assay [2], the dose at which minimal migration is still detectable was found to be 0.1 ng/mL and the dose for optimal migration of CCR4-transfected cells was 1 to 10 ng/mL.

“biotinylated CCL22(K49) analogue (from UniProt O00626 25-93) (ligand)” yielded an MFI in assay [1] of 6.1. In assay [2], this molecule registered a dose at which minimal migration is still detectable of 0.1 ng/mL and a dose for optimal migration of CCR4-transfected cells of 1 to 10 ng/mL.

“biotinylated CCL22(K61) analogue (from UniProt O00626 25-93) (ligand)” returned an MFI in assay [1] of 6.6. For the same molecule, in assay [2], the dose at which minimal migration is still detectable came out at 0.1 ng/mL and the dose for optimal migration of CCR4-transfected cells fell in the range of 1 to 10 ng/mL.

B1: biotinylated CCL22(K66) analogue (ligand)
chain: GPYGANMEDSVCCRDYVRYRLPLRVVKHFYWTSDSCPRPGVVLLTFRDKEICADPRVPWVKMILNK(Biotin)LSQ
notes: Synthetic human CCL22 with one biotin; also called biotinylated h-MDC
As for B1, in assay [3], the binding result is listed as “binds”.
